Response (relative amount bound) data for one variant are collected here from article PMC10741561.

The chains are these.
B1: WT-Sx4-GST (C-terminally GST-tagged Syntaxin 4 cytosolic domain) [not stated] / His-SNAP23 (N-terminally His-tagged SNAP23) [not stated] (parent)
chain 1: MRDRTHELRQGDNISDDEDEVRVALVVHSGAARLGSPDDEFFQKVQTIRQTMAKLESKVRELEKQQVTILATPLPEESMKQGLQNLREEIKQLGREVRAQLKAIEPQKEEADENYNSVNTRMKKTQHGVLSQQFVELINKCNSMQSEYREKNVERIRRQLKITNAGMVSDEELEQMLDSGQSEVFVSNILKDTQVTRQALNEISARHSEIQQLERSIRELHEIFTFLATEVEMQGEMINRIEKNILSSADYVERGQEHVKIALENQKKARKKKV
chain 2: MDNLSPEEVQLRAHQVTDESLESTRRILGLAIESQDAGIKTITMLDEQGEQLNRIEEGMDQINKDMREAEKTLTELNKCCGLCICPCNRTKNFESGKNYKATWGDGGDNSPSNVVSKQPSRITNGQPQQTTGAASGGYIKRITNDAREDEMEENLTQVGSILGNLKNMALDMGNEIDAQNQQIQKITEKADTNKNRIDIANTRAKKLIDS

The first test covers variants of B1. Nature of the test: GST pull-down (glutathione sepharose), immunoblot, ImageJ quantification. Conditions: with His-SNAP23 (N-terminally His-tagged SNAP23); 30 min; 1–5 μg Sx4-GST variant on beads, excess His-SNAP23, 4 °C; read off a plot. Background: In western blotting, separated proteins are transferred to a membrane and probed.
Turning to chain 1 L173A E174A, the response (relative amount bound) amounted to 0.77.

Still in this test, the particulars now being: with His-SNAP23 (N-terminally His-tagged SNAP23); 60 min; 1–5 μg Sx4-GST variant on beads, excess His-SNAP23, 4 °C; read off a plot.
For chain 1 L173A E174A, the response (relative amount bound) is 1.7.
